B1: TOR1AIP2 (parent)
chain: SPGHSSAGQEGEDTLRRRLLAPEA
B2: FBXO33 (parent)
chain: RLRGLLRVLRGRPGAGSRRRGRMA

Variants of: B1
Assay: protein stability index of a GFP-peptide fusion (GPS, HEK-293T) (PSI 1-6); higher = more stable
Conditions: c terminus: a fixed tail appended
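Further: lentivirally expressed fusions sorted by FACS into six bins by GFP to DsRed ratio, PSI derived from sequencing read proportions per bin multiplied by bin number.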

Row | Variant | protein stability index
1 | R18I | 3.07
2 | R18S | 5.01
3 | R18L | 2.99
4 | R18Q | 3.89
5 | R18E | 5.45
6 | R18Y | 2.94
7 | R18M | 3.29
8 | R18W | 2.51
9 | R18N | 4.98
10 | R18D | 4.89
11 | R18K | 4.83
12 | R18A | 4.8
13 | R18H | 4.6
14 | R18C | 4.4
15 | R18G | 5.1
16 | R18V | 4.14
17 | R18F | 2.84
18 | R18T | 4.58
19 | R18P | 5.5
20 | R17E | 4.42
21 | R17S | 4.71
22 | R17A | 4.63
23 | R17Q | 4.37

Row | Variant | protein stability index
24 | R17I | 3.81
25 | R17L | 3.31
26 | R17T | 4.58
27 | R17C | 4.51
28 | R17G | 5
29 | R17D | 5.46
30 | R17K | 4.76
31 | R17W | 2.36
32 | R17H | 3.85
33 | R17M | 3.54
34 | R17Y | 2.48
35 | R17P | 5.04
36 | R17N | 4.67
37 | R17F | 2.09
38 | R17V | 3.9
39 | L20V | 5.21
40 | L20F | 3.94
41 | L20R | 5.26
42 | L20E | 4.9
43 | L20Q | 5.63
44 | L20T | 5.33
45 | L20A | 5.64
46 | L20C | 5.49

Row | Variant | protein stability index
47 | L20S | 4.95
48 | L20K | 5.38
49 | L20H | 5.29
50 | L20N | 5.25
51 | L20Y | 4.51
52 | L20W | 4.73
53 | L20I | 4.94
54 | L20G | 5.54
55 | L20D | 4.7
56 | L20M | 5.01
57 | L20P | 5.15
58 | L19N | 5.34
59 | L19M | 3.39
60 | L19F | 4.73
61 | L19A | 5.4
62 | L19S | 5.24
63 | L19H | 5.52
64 | L19D | 5.35
65 | L19Y | 4.86
66 | L19C | 4.99
67 | L19E | 5.46
68 | L19I | 3.39
69 | L19R | 4.89

Row | Variant | protein stability index
70 | L19P | 5.29
71 | L19Q | 5.33
72 | L19T | 5.55
73 | L19G | 5.45
74 | L19V | 4.9
75 | L19K | 5.54
76 | L19W | 4.3
77 | R16Y | 4.44
78 | R16T | 5.04
79 | R16W | 3.52
80 | R16P | 4.9
81 | R16N | 5.23
82 | R16Q | 5.34
83 | R16V | 5.51
84 | R16S | 5.63
85 | P22M | 4.93
86 | P22I | 5.16
87 | P22N | 5.76
88 | P22D | 5.34
89 | P22C | 4.41
90 | P22R | 4.99
91 | P22F | 4.92
92 | P22T | 4.47

Row | Variant | protein stability index
93 | P22E | 4.95
94 | P22V | 4.8
95 | P22G | 5.11
96 | P22Q | 5.42
97 | P22S | 4.92
98 | P22L | 4.59
99 | P22W | 4.84
100 | P22K | 5.46
101 | P22A | 4.42
102 | P22H | 5.27
103 | P22Y | 4.41
104 | A24K | 4.82
105 | A24V | 4.59
106 | A24E | 5.36
107 | A24W | 2.94
108 | A24Q | 4.82
109 | A24I | 4.2
110 | A24S | 4.35
111 | A24N | 4.83
112 | A24M | 2.76
113 | A24L | 3.02
114 | A24C | 4.27
115 | A24F | 3.98

Row | Variant | protein stability index
116 | A24P | 4.94
117 | A24G | 5.14
118 | A24T | 4.61
119 | A24Y | 3.42
120 | A24H | 4.43
121 | A24R | 4.54
122 | A24D | 5.29
123 | A21D | 5.37
124 | A21T | 5.39
125 | A21W | 4.16
126 | A21Y | 4.38
127 | A21I | 4.51
128 | A21P | 5.09
129 | A21V | 4.86
130 | A21M | 4.19
131 | A21C | 3.31
132 | A21S | 3.08
133 | A21N | 4.9
134 | A21L | 4.58
135 | A21K | 4.89
136 | A21E | 5.23
137 | A21Q | 4.94
138 | A21G | 5.31

Row | Variant | protein stability index
139 | A21H | 5.26
140 | A21F | 4.71
141 | A21R | 4.89
142 | E23P | 5.13
143 | E23I | 4.1
144 | E23Y | 3.59
145 | E23W | 3.98
146 | E23D | 4.15
147 | E23M | 4.47
148 | E23T | 4.53
149 | E23H | 4.09
150 | E23A | 4.71
151 | E23R | 4.77
152 | E23K | 4.95
153 | E23L | 3.87
154 | E23C | 4.42
155 | E23Q | 4.59
156 | E23N | 4.46
157 | E23F | 3.78
158 | E23S | 4.46
159 | E23V | 4.38
160 | E23G | 4.67

Variants of: B2
Assay: as above
Conditions: c terminus: a fixed tail appended

Row | Variant | protein stability index
161 | G16H | 1.83
162 | G16L | 1.44
163 | G16Y | 1.86
164 | G16Q | 1.65
165 | G16T | 2.96
166 | G16F | 1.79
167 | G16E | 2.94
168 | G16I | 1.01
169 | G16N | 2.57
170 | G16P | 2.06
171 | G16S | 1.5
172 | R18Q | 2.83
173 | R18Y | 1.95
174 | R18G | 1.16
175 | R18L | 1.15
176 | R18V | 1.26
177 | R18H | 1.59
178 | R18F | 1
179 | R18E | 1.99
180 | R18I | 1.72
181 | R18P | 1.08
182 | R18C | 1.8
183 | R7G | 2.86
184 | R7I | 2.17
185 | R7W | 1.69

Row | Variant | protein stability index
186 | R7S | 2.83
187 | R7E | 2.04
188 | R7T | 2.05
189 | R7N | 2.35
190 | R7Y | 2.41
191 | R7L | 2.56
192 | G4R | 2.06
193 | G4P | 2.23
194 | G4C | 1.45
195 | G4E | 2.08
196 | G4L | 2.2
197 | G4H | 1.29
198 | G4D | 1.88
199 | G11P | 2.23
200 | G11H | 1.92
201 | G11C | 1.64
202 | G11I | 2.77
203 | G11E | 1.83
204 | G11T | 2.23
205 | G11N | 2.47
206 | R12A | 3.08
207 | R12I | 1.06
208 | R12Q | 2.17
209 | R12W | 1.79
210 | R12G | 2.53

Row | Variant | protein stability index
211 | R12L | 1.66
212 | R12D | 2.31
213 | R12S | 2.19
214 | R12T | 2.03
215 | G14C | 1.84
216 | G14F | 1.85
217 | G14A | 2.84
218 | G14W | 2.76
219 | G14Y | 3
220 | G14M | 1.92
221 | G14V | 2.04
222 | G14K | 1.86
223 | G14L | 1.41
224 | A15K | 1.25
225 | A15S | 1.6
226 | A15T | 1.47
227 | A15G | 1.54
228 | A15R | 2.46
229 | A15N | 1.8
230 | A15F | 1.93
231 | A15D | 1.66
232 | A15Y | 2.17
233 | A15C | 1.71
234 | A15Q | 1.49
235 | A15L | 1.19

Row | Variant | protein stability index
236 | A15W | 1.8
237 | L9Q | 3.39
238 | L9V | 1.92
239 | L9W | 2.83
240 | L9F | 3.09
241 | L9N | 3.72
242 | L9T | 4
243 | L9E | 3.75
244 | L9Y | 2.73
245 | L9K | 3.26
246 | R10S | 1.93
247 | R10I | 2.25
248 | R10N | 1.72
249 | R10A | 1.96
250 | R10C | 2.99
251 | R10P | 2.59
252 | L5Q | 3.78
253 | L5M | 2.88
254 | L5N | 4.52
255 | L5D | 4.05
256 | L5P | 4.32
257 | L5C | 3.17
258 | L5S | 4.64
259 | L5E | 3.98
260 | L5V | 2.71

Row | Variant | protein stability index
261 | L5G | 4.71
262 | L5A | 4.21
263 | L5Y | 3.49
264 | L5W | 1.85
265 | R19Q | 1.75
266 | R19K | 1.89
267 | R19H | 1.88
268 | R19E | 1.43
269 | R19S | 1.79
270 | R19N | 1.71
271 | R1Q | 2.02
272 | R1A | 1.7
273 | R1L | 1.59
274 | R1D | 2.92
275 | R1W | 1.69
276 | R1C | 1.2
277 | R1F | 1.53
278 | R1S | 1.75
279 | R1N | 2.01
280 | R1G | 1.84
281 | P13V | 2.68
282 | P13S | 3.48
283 | P13C | 2.09
284 | P13I | 1.6
285 | P13H | 1.77

Row | Variant | protein stability index
286 | P13Q | 2.34
287 | P13F | 2.1
288 | P13D | 2.01
289 | P13K | 3.26
290 | R3M | 1.54
291 | R3Q | 2.21
292 | R3V | 1.02
293 | R3K | 2.83
294 | R3D | 2.67
295 | R3T | 2.23
296 | L6C | 2.07
297 | L6E | 2.75
298 | L6I | 2.18
299 | L6G | 4.8
300 | L6D | 5.1
301 | L6A | 3.57
302 | L6V | 2.77
303 | L6R | 4.41
304 | L6K | 2.73
305 | L6T | 4.48
306 | S17E | 2.36
307 | S17T | 3.32
308 | S17A | 1.75
309 | S17Y | 2.52
310 | S17G | 1.92

Row | Variant | protein stability index
311 | S17L | 2.86
312 | S17F | 2.58
313 | S17K | 2.01
314 | V8D | 2.47
315 | V8T | 1.81
316 | V8P | 4.41
317 | V8I | 2.84
318 | V8R | 2.54
319 | V8Y | 2.64
320 | V8F | 2.83
321 | V8S | 1.93
322 | V8C | 2.06
323 | V8W | 1.87
324 | V8N | 2.01
325 | V8H | 2.1
326 | V8K | 1.91
327 | L2H | 4.34
328 | L2K | 3.56
329 | L2P | 4.19
330 | L2M | 3.22
331 | L2E | 3.99
332 | L2F | 2.1
333 | L2W | 3.3
334 | L2Q | 5.05

From the supplement of paper PMC10567573
